Measured values reported in US20150216948A1, “CYTOCHROME P450 SUICIDE GENE SYSTEM” (priority 2012, published 2015).

What was measured:
HepG2 cells [1] = experiment: 4-IPO toxicity assay: survival of transduced HepG2 cells by flow cytometry (propidium iodine); format: cell-based, human
Excerpt: Initially, the serine at position 427 in the human CYP4B1 was mutated back to proline (h-P427), which is present at this position in all CYP4B1 proteins. Additionally a proline to serine exchange was created in the native rabbit CYP4B1 enzyme at the corresponding position 422 (r-P422). To immediately exclude the possibility that the different activities between human and the rabbit protein isoforms are simply due to differences in mRNA stability, the human CYP4B1 cDNA (SEQ ID NO.: 2) was optimized for human-codon usage (SEQ ID NO.: 3) by de novo synthesis with silent mutagenesis of the cDNA, thus removing internal TATA-boxes, instability motives, RNA secondary structures and (cryptic) splice donor/acceptor sites and ensuring an average GC content of around 60%. All cDNAs were cloned into the same lentiviral (LV) HIV1-based expression vector and LV supernatants produced by plasmid transfection in HEK293T cells. Subsequently, the two rabbit and the four human cDNAs were stably expressed in the human liver cell line HepG2. Stably expressing transduced cells were challenged after five days with increasing concentrations of 4-IPO for 24, 48 and 72 hours and then the survival of cells analyzed by flow cytometry using propidium iodine for live/dead cell discrimination.
(§1) Next, it was analyzed whether the different activities of the human and the rabbit proteins in processing 4-IPO could be explained by differences in protein half-life. However, as no antibody was available that can detect both CYP4B1 proteins, EGFP fusion constructs were generated. With these constructs, EGFP antibodies can be utilized to visualize and compare the expression levels and the half-lives of the fusion proteins in cells by western blots. EGFP expression can also be used for flow cytometry assessment of the expression levels due to the fluorescent properties of the fusion proteins. 5′- and 3′-fusions of EGFP with the native rabbit P422 and the human P427 CYP4B1 proteins were cloned in LV vectors with an IRES-NEO (NEO=neomycin phosphotransferase cDNA, npt II) and stably expressed in HepG2 cells (FIG. 3 B). For comparison, the corresponding IRES-EGFP constructs were also included, as these vectors had already been used in previous experiments and activity measurements thus already existed. Transduced cells were incubated for 24, 48 and 72 hours with increasing concentration of 4-IPO. Cultures were then harvested, cells stained with propidium iodine and subsequently analyzed for survival of transduced EGFP+ cells by flow cytometry (FIG. 3 A).

HepG2 cells [2] = experiment: Half-life of CYP4B1/EGFP fusion proteins after cycloheximide (western blot, FACS); format: cell-based, human; details: EGFP fusion, 50 μg/ml cycloheximide, G418-selected HepG2 cells
Experimental: FIGS. 3 C and D show CYP4B1 stability as analysed by western blotting and by flow cytometry. The studies on protein expression and stability were performed with the rabbit and human CYP4B1/EGFP fusion construction in the lentiviral vector with the additional IRES-neomycin cassette. Half-life analysis was performed by adding 50 μg/ml cycloheximide to the transduced and G418-selected HepG2 cells. Samples were collected at the indicated time points.
as §1
After standard inhibition of de novo protein synthesis by cycloheximide, the half-life of the CYP4B1 proteins in stably transduced and G418-resistant HepG2 cells was assessed by determining the protein expression levels over time either in western blotting or in FACS analysis as EGFP fluorescence. […] For the human native protein (h-S427), the mean fluorescence indicates a short average half-life of only 6 hours.

primary human T-cells = experiment: 4-IPO toxicity in transduced primary T-cells; format: cell-based; details: after 24 hours, 4-IPO, IRES-EGFP-WPRO vector, FIG. 17
Excerpt: Compared to the HepG2 liver cells, primary T-cells might not provide an optimal environment for the function of P450 cytochromes (although the necessary reductase is ubiquitously expressed) and the infection of primary T-cells is considerably more complex.
The T cells were isolated by Ficoll and stimulated with CD3, CD28 and IL2 for 3 days before they were infected with lentiviral vectors using fibronectin. For optimal toxicity in T cells, the suicide genes were not expressed as EGFP fusions proteins but a IRES-EGFP-WPRO vector construct was used. […] However, after 24 hours over 70% of the transgenic T cells were eliminated by CYP4B1 P427 mut12. […] The determination of the virus titer was based on the titration of the reference cell line HT1080.

B1: coop H-P427: h-P427 expressed from cDNA optimized for human codon usage (protein, listed as Homo sapiens)
chain: MVPSFLSLSFSSLGLWASGLILVLGFLKLIHLLLRRQTLAKAMDKFPGPPTHWLFGHALEIQETGSLDKVVSWAHQFPYAHPLWFGQFIGFLNIYEPDYAKAVYSRGDPKAPDVYDFFLQWIGRGLLVLEGPKWLQHRKLLTPGFHYDVLKPYVAVFTESTRIMLDKWEEKAREGKSFDIFCDVGHMALNTLMKCTFGRGDTGLGHRDSSYYLAVSDLTLLMQQRLVSFQYHNDFIYWLTPHGRRFLRACQVAHDHTDQVIRERKAALQDEKVRKKIQNRRHLDFLDILLGARDEDDIKLSDADLRAEVDTFMFEGHDTTTSGISWFLYCMALYPEHQHRCREEVREILGDQDFFQWDDLGKMTYLTMCIKESFRLYPPVPQVYRQLSKPVTFVDGRSLPAGSLISMHIYALHRNSAVWPDPEVFDSLRFSTENASKRHPFAFMPFSAGPRNCIGQQFAMSEMKVVTAMCLLRFEFSLDPSRLPIKMPQLVLRSKNGFHLHLKPLGPGSGK
HepG2 cells [1]; transduced cells, FIG. 2
  cell survival rates upon administration of 4-IPO: 37%

B2: r-S422: rabbit CYP4B1 with proline-to-serine exchange at position 422 (protein, UniProt P15128 1-506, looked up, variant P422S)
Cytochrome P450 4B1: MLGFLSRLGLWASGLILILGFLKLLRLLLRRQRLARAMDSFPGPPTHWLFGHALEIQKTGSLDKVVTWTQQFPYAHPLWVGQFIGFLNIYEPDYAKAVYSRGDPKAPDVYDFFLQWIGKGLLVLDGPKWFQHRKLLTPGFHYDVLKPYVAIFADSTRIMLEKWEKKACEGKSFDIFSDVGHMALDTLMKCTFGKGDSGLNHRDSSYYVAVSELTLLMQQRIDSFQYHNDFIYWLTPHGRRFLRACRAAHDHTDRVIRQRKAALQDEKEREKIQNRRHLDFLDILLDVRGESGVQLSDTDLRAEVDTFMFEGHDTTTSGISWFLYCMALYPEHQQRCREEVREILGDQDSFQWEDLAKMTYLTMCMKECFRLYPPVPQVYRQLSKPVSFVDGRSLPAGSLISLHIYALHRNSDVWPDPEVFDSLRFSPENSSGRHPYAFIPFSAGPRNCIGQQFAMNEMKVVTALCLLRFEFSVDPLRLPIKLPQLVLRSKNGIHLYLKPLGPKAEK
HepG2 cells [1]; after 24 hours of 4-IPO treatment, FIG. 2
  transduced HepG2 cells eliminated / dead: 73%
HepG2 cells [2]
  protein half-life: approx. 30 hours

B3: CYP4B1 P427 mut12: modified human CYP4B1 P427 protein comprising 12 further amino acid exchanges found in other human CYP4 proteins (protein)
chain: MVPSFLSLSFSSLGLWASGLILVLGFLKLIHLLLRRQTLAKAMDKFPGPPTHWLFGHALEIQETGSLDKVVSWAHQFPYAHPLWFGQFIGFLNIYEPDYAKAVYSRGDPKAPDVYDFFLQWIGKGLLVLDGPKWFQHRKLLTPGFHYDVLKPYVAIFADSTRIMLDKWEKKAREGKSFDIFCDVGHMALDTLMKCTFGKGDSGLGHRDSSYYLAVSELTLLMQQRIVSFQYHNDFIYWLTPHGRRFLRACQVAHDHTDQVIRERKAALQDEKVRKKIQNRRHLDFLDILLGARDEDDIKLSDADLRAEVDTFMFEGHDTTTSGISWFLYCMALYPEHQHRCREEVREILGDQDFFQWDDLGKMTYLTMCIKESFRLYPPVPQVYRQLSKPVTFVDGRSLPAGSLISMHIYALHRNSAVWPDPEVFDPLRFSTENASKRHPFAFMPFSAGPRNCIGQQFAMSEMKVVTAMCLLRFEFSLDPSRLPIKMPQLVLRSKNGFHLHLKPLGPGSGK
HepG2 cells [1]; transduced cells challenged with 4-IPO
  4-IPO processing activity / cell killing (in words): equally good killing curve as the modified human CYP4B1 P427 mut18
Primary human T-cells
  transgenic T cells eliminated: over 70%
